Laboratory results reported in patent publication US20020146411A1, “Anticoagulant agents useful in treatment of thrombosis” (SmithKline Beecham Corporation, priority 1996, published 2002).
“Also recorded” adds a separate entry of the source.

How the values were obtained:
[1] = molecular target: T1, Factor IXa (Homo sapiens, UniProt P00740); experiment: Binding to Factor IXa (Table I)
T1 construct: as well as the active protease, Factor IXa

[2] = molecular target: Factor IX to IXa conversion (Homo sapiens, UniProt P00740); experiment: Inhibition of Factor IX to IXa conversion (Table I); assay type: biochemical
Chain of Factor IX to IXa conversion (P00740 29-461 limits assumed): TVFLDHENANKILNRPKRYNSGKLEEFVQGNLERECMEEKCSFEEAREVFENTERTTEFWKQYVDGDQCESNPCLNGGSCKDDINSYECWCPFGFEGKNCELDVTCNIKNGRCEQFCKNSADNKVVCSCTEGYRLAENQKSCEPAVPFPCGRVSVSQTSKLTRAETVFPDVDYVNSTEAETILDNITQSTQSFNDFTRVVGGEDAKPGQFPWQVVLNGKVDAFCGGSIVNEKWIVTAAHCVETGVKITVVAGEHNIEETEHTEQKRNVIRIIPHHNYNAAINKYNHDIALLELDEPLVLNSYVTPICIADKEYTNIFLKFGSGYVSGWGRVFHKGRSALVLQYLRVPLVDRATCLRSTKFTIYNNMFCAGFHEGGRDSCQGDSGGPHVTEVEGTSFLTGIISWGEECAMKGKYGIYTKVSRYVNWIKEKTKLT

[3] = molecular target: T2, Factor IXa in Xase complex (Homo sapiens, UniProt P00740); experiment: Inhibition of IXa activity in Xase complex (Table I); assay type: biochemical
T2 construct: as well as the active protease, Factor IXa
T2 sequence (P00740 47-191 limits assumed): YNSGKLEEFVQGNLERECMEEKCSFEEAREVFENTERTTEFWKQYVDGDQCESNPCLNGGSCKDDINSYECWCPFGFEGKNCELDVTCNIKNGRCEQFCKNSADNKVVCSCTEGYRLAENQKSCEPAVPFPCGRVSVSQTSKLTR
T2 sequence (P00740 227-461 limits assumed): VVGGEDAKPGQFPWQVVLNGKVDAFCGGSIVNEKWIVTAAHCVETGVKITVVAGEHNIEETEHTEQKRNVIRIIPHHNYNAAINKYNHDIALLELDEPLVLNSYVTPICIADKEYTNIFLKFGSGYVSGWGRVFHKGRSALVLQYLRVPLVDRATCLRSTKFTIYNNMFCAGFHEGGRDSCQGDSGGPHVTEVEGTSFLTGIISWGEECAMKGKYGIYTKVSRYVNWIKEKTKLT

[4] = molecular target: T3, Factor IX (Homo sapiens, UniProt P00740); experiment: Cofactor requirement for mAb activity (Table I)
Target sequence in this assay (P00740 29-461 limits assumed): as the sequence (P00740 29-461 limits assumed) above

[5] = system: Cynomologous monkey Factor IX; experiment: Species cross-reactivity, monkey Factor IX; assay type: binding
[6] = molecular target: rat Factor IX (Rattus norvegicus, UniProt P16296); experiment: Species cross-reactivity, rat Factor IX; assay type: binding
Chain of rat Factor IX (P16296 40-462): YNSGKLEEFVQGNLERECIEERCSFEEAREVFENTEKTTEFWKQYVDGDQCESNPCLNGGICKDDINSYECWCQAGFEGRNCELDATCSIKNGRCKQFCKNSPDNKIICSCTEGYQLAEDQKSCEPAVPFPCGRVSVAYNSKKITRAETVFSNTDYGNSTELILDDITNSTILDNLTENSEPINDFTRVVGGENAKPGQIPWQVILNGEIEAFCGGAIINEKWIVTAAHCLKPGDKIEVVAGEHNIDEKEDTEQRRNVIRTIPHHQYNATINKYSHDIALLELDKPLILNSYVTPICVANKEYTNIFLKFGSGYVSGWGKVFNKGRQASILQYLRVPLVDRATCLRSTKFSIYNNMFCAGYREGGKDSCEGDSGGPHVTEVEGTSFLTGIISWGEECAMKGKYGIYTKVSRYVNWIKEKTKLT

[7] = system: rat carotid artery thrombosis; experiment: Rat carotid artery thrombosis model (FeCl3 injury), Example 3; assay type: in vivo
Source text: In order to evaluate the efficacy of anti-Factor IX antibodies in prevention of arterial thrombosis, the rat carotid artery thrombosis model as reported by Schumacher et al. in J. Cardio. Pharm. 22, 526-533 (1993) was adapted. This model consists of segmental injury to the carotid endothelium by oxygen radicals generated by FeCl3 solution applied on the surface of the carotid artery.
In brief, rats were anesthetized with pentobarbitone sodium, the jugular vein cannulated for intravenous injections and the left femoral artery cannulated for blood pressure and heart rate monitoring. The carotid artery was isolated by aseptic technique via a surgical incision in the neck and equipped with a magnetic flow probe for blood flow measurement. After a period of stabilization, baseline parameters were established for the following variables: carotid blood flow, arterial pressure, heart rate, activated partial thromboplastin time (aPTT) and prothrombin time (PT). Thereafter, a premeasured Whatman filter paper soaked in 50% FeCl3 solution was placed on the carotid artery for 15 minutes for complete injury of the underlying endothelial cells. After removal of the FeCl3 soaked paper, the experiment was followed to completion over 60 minutes. At the end of the experiment, the carotid thrombus was extracted from the carotid artery and weighed.
All agents were administered 15 minutes prior to the onset of carotid injury. The following treatments were examined and compared to the Factor IX mAb BC2.
1. Heparin: 15, 30, 60 or 120 U/kg bolus, followed by infusion of 0.5, 1, 2 or 4 U/kg/min, respectively over 60 minutes
2. Acetylsalicylic acid (ASA, aspirin): 5 mg/kg bolus
3. Anti-Factor IX mAb BC2: 1, 3 or 6 mg/kg bolus, followed by infusion 0.3, 1, or 2 ug/kg/min, respectively over 60 minutes
4. Heparin: 30U/kg bolus+lU/kg/min+ASA at 5 mg/kg
5. Anti-Factor IX mAb BC2: 1 mg/kg+0.3 ug/kg/min+ASA at 5 mg/kg

[8] = molecular target: T4, Recombinant human Factor IX (rhFIX) (Homo sapiens, UniProt P00740, T194A); experiment: BIAcore kinetics of Factor IX binding to mAb on protein A surface; conditions: rhFIX 49 nM, 5 mM Ca2+, biosensor
T4 construct: purchased Genetics Institute
T4 sequence (P00740 47-461 T194A): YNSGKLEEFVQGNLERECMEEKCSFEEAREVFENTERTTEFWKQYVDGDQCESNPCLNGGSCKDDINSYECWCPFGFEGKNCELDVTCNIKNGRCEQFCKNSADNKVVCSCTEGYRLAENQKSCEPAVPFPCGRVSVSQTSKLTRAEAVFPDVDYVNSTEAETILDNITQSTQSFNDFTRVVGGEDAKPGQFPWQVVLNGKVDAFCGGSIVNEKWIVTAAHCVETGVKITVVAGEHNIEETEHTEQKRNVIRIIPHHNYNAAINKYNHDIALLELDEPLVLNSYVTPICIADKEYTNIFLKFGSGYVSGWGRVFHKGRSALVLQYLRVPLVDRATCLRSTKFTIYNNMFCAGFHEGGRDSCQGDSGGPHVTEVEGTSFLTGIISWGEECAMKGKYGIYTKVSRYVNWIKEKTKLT
Method: The kinetics of Factor IX binding to SB 249417 was assessed by BIAcore analysis with antibody bound to an immobilized protein A surface. Recombinant human Factor IX (rhFIX, Genetics Institute) at 49 nM was used and measurements performed in the presence of 5 mM Ca^2+. The interaction was characterized by rapid association, kass 2.0×10^5 M^−1 s^−1 and relatively slow off-rate, kdiss=4.1×10^−4 s^−1.

[9] = system: Factor IX gla domain; experiment: Epitope mapping of BC2 with Factor IX/Factor VII chimeric constructs; assay type: binding
Method: A library of chimeric constructs composed of sequences of Factor IX spliced into the framework of the homologous protein Factor VII was constructed and used to map the epitope for the Factor IX BC2 mAb. See Cheung et al., Thromb. Res. 80, 419-427 (1995). Binding was measured using a BiaCore 2000 surface plasmon resonance device. The BC2 antibody was coupled directly to the chip using the NHS/EDC reaction. Binding was measured by 2 min of contact time at 20 uL/min with 200 nM of each of the given constructs in 25 mM MOPS, pH 7.4, 0.15 M NaCl, 5 mM CaCl2. Dissociation was monitored for 3 min using the same buffer with no protein. No binding was detected to the wild type construct in the presence of 50 mM EDTA.

[10] = molecular target: T3, Factor IX; experiment: aPTT clotting time of human plasma, anti-Factor IX mAbs; assay type: biochemical; set-up: Human plasma samples were either freshly drawn and kept on ice or reconstituted; host or cells: human plasma
Method: The effect of increasing concentrations of anti-coagulation factor antibodies on activated partial thromboplastin time (aPTT) of human plasma was determined in a fibrometer (Becton-Dickinson Microbiology Systems, Cockeysville, Md.) using Baxter reference procedure LIB0293-J, 3/93 revision (Baxter Scientific, Edison, N.J.).
Prior to the start of the experiment, 2 to 3 mL of 0.02 M CaCl2 in a 5 mL tube were placed into the heating chamber of the fibrometer. Human plasma samples were either freshly drawn and kept on ice or reconstituted per the manufacturer's recommendation from Hemostasis Reference Plasma (American Diagnostics, Greenwich, Conn.).
Unfractionated heparin from porcine intestinal mucosa (Sigma Chemical, St. Louis, Mo.), low molecular weight heparin from porcine intestinal mucosa (Lovenox®, enoxaparin sodium, Rhone-Poulenc Rorer Pharmaceuticals, Collegeville, Pa.) or mAb anticoagulants were prepared as approximately 50 uM stock solutions and serially diluted directly into the test plasma. A blank containing plasma without anticoagulant was included as a reference.
Two fibroTube® fibrometer cups were filled with 100 ul test plasma or 100 ul test plasma with anticoagulant and 125 ul of actin activated cephaloplastin reagent (Actin reagent, from rabbit brain cephalin in ellagic acid, available from Baxter Scientific), respectively and placed in the fibrometer wells at 37° C.
After one minute, 100 ul of actin reagent was transferred to a plasma-containing cup and the contents mixed several times with a pipette. After a 3 minute incubation, 100 ul of CaCl2, prewarmed at 37° C., was added to the plasma-actin reagent mixture using a Automatic Pipette/Timer-trigger (Becton-Dickinson). The clotting times were noted and the results in FIG. 1 are presented as clotting times as a function of final concentrations of anticoagulant in the total assay volume of 300 ul. The nominal concentration of Factor IX in the assay is 30-40 nM.
Target sequence in this assay (P00740 47-461): as the sequence (P00740 47-461 T194A) above, with A148T counted along it

[11] = molecular target: T3, Factor IX; experiment: Binding to Factor IX (in vitro properties, Table I); set-up: Human plasma samples were either freshly drawn and kept on ice or reconstituted; host or cells: human plasma
Method: Approximately two weeks later, 1.0 mL of hybridoma medium was removed from each well and tested for anti-Factor IX antibodies using an ELISA assay as described by Jenny, R. J. et al. in Meth. Enzymol. 222, 400-416 (1993). Briefly, factor IX was immmobilized onto plastic wells of 96-well microtiter plates. Hybridoma supernatants or dilutions of purified antibody were then incubated in the wells. The wells were washed and the presence of antibody-antigen complexes detected with a goat anti-murine immunoglobulin second antibody conjugated to horseradish peroxidase and the chromogenic substrate o-dianisidine.
Target sequence in this assay (P00740 47-461): as the sequence (P00740 47-461 T194A) above, with A148T counted along it

[12] = system: rat carotid artery thrombosis; experiment: Rat carotid artery thrombosis model, humanized mAbs, Example 8; assay type: in vivo; conditions: 3.0 mg/kg i.v. bolus, 60 minutes after onset of injury
Method: In order to evaluate the efficacy of humanized anti-Factor IX antibodies in prevention of arterial thrombosis, the rat carotid artery thrombosis model as described above in Example 3 was used. Baseline parameters were established for carotid blood flow, arterial pressure, heart rate, vessel patency and activated partial thromboplastin time (aPTT). Fifteen minutes thereafter, carotid injury was effected for […]. The parameters were determined 60 minutes after onset of carotid injury. Carotid thrombus was also extracted from the carotid artery and weighed.
All agents were administered intravenously 15 minutes before the onset of carotid injury. The following treatments were examined and compared to the anti-Factor IX mAb BC2.

[13] = molecular target: T5, rhFIX (Homo sapiens, UniProt P00740, T194A); experiment: Titration microcalorimetry of rhFIX binding
T5 construct: purchased Genetics Institute
T5 sequence (P00740 47-461 T194A): as the sequence (P00740 47-461 T194A) above
Method: The interactions between rhFIX and SB 249417 BC2 and other humanized constructs were characterized by titration microcalorimetry, which measures binding interactions in solution from the intrinsic heat of binding. Nine injections of 106 uM FIX were made into the calorimeter containing 2 uM mAb SB 249417. Binding was detected in the first 4 injections as exothermic heats. At the last 5 injections the mAb binding sites were saturated with FIX and only background heats of mixing were observed. […] Nonlinear least squares analysis of the data yield the binding affinity.
The data in Table 3 indicate that the affinities of SB 249417, BC2 and its other humanized constructs are within error (a factor of 2) the same.

T1 sequence (P00740 47-191 limits assumed): as the sequence (P00740 47-191 limits assumed) above
T1 sequence (P00740 227-461 limits assumed): as the sequence (P00740 227-461 limits assumed) above

B1: BC2: murine monoclonal antibody directed against human Factor IX and/or Factor IXa, isotype IgG2a (antibody, V domains shown)
VH: QIQLVQSGPELKKPGETVKISCKASGYTFTNYGMNWVKQAPGKGLKWMGWINTRNGKSTYVDDFKGRFAFSLESSASTANLQIDNLKDEDTATYFCTREGNMDGYFPFTYWGQGTLVTVSA
VL: QIVLSQSPAILSASPGEKVTMTCRASSSVNYMHWYQQKPGSSPKPWIYATSNLASGVPARFSGSGSGTSYSLTISRVEAEDAATYYCQQWSINPRTFGGGTKLEIKR
Binds Factor IXa [1]: binds Factor IXa and yes
Inhibits IX to IXa conversion [2]: yes
Inhibits IXa activity in Xase complex [3]: inhibits Factor IXa activity and yes
Cofactor requirement [4]: Divalent metal cofactors are required for activity; also recorded: Ca^2+ > Mn^2+
Species cross-reactivity: monkey Factor IX [5]: cross-react
Species cross-reactivity: rat Factor IX [6]: cross-reacted; also recorded: species cross-reactivity with rat
effect on prothrombin time (PT) at 60 minutes (FIG. 5) [7]: not by any of the Factor IX mAb doses
effect on thrombus weight (FIG. 7) [7]: dose-dependently reduced
effect on carotid artery occlusion ([7]; Factor IX mAb at the two higher doses (3, 6 mg/kg bolus + infusion)): completely blocked
effect on thrombus formation ([7]; high dose of Factor IX mAb): virtually prevented completely
increase in clotting time (aPTT) ([7]; highest dose of Factor IX mAb (6 mg/kg bolus + 2 ug/kg/min)): ≤ 3 fold
effect on carotid artery occlusion (patency) ([7]; lower dose of Factor IX mAb alone (1 mg/kg + 0.3 ug/kg/min)): largely failed to secure patency
effect on aPTT at 60 minutes (FIG. 4) ([7]; regimens of b146-b150, given 15 minutes before injury): modest effect
kass [8]: 480000 M⁻¹ s⁻¹
kdiss [8]: 0.00091 s⁻¹
epitope [9]: residues 3-11 of the Factor IX gla domain
[formula] (row head is a formula not shown) ([10]; Table I, the values are: max aPTT as % of normal aPTT): 350%
aPTT at saturating concentrations of mAb ([10]; normal human plasma, FIG. 1): about 90 sec
increase of the aPTT at saturating concentrations ([10]; normal human plasma, FIG. 1): 3.5 fold
maximal value of clot time in the aPTT assay ([10]; self-limiting effect, summary description): about 100 seconds
Binds Factor IX [11]: yes

B2: SB 249417: humanized anti-Factor IX mAb, heavy chain F9HZHC 1-1 (SEQ ID NO: 52), light chain F9HZLC 2-0 (SEQ ID NO: 74) (antibody, V domains shown)
VH: QVQLVQSGSELKKPGASVKVSCKASGYTFTNYGMNWVRQAPGQGLKWMGWINTRNGKSTYVDDFKGRFVFSLDSSVSTAYLQISSLKADDTAVYYCTREGNMDGYFPFTYWGQGTLVTVSS
VL: QIVLTQSPSSLSASVGDRVTITCRASSSVNYMHWYQQKPGKAPKPWIYATSNLASGVPSRFSGSGSGTDYTFTISSLQPEDIATYYCQQWSINPRTFGQGTKVEIKR
effect on aPTT (FIG. 8) [12]: modest effect
Stoichiometry of Factor IX Binding, Isothermal Titration Calorimetry [13]: 1.5 moles Factor IX: 1 mole mAb
